Data published in article PMC12855180 (Nature Communications, 2025).
Changes are numbered by the printed parent chain. Names and notes keep the numbering of the source. Like-named read-outs stand apart in the source and are kept apart here.

B1: FliD d0 domain truncation construct (FliD^d1d2d3, residues from 44 to 411) (domain or fragment)
chain: LTAYGTLKSALEKFQTANTALNKADLFKSTVASSTTEDLKVSTTAGAAAGTYKINVTQLAAAQSLATKTTFATTKEQLGDTSVTSRTIKIEQPGRKEPLEIKLDKGDTSMEAIRDAINDADSGIAASIVKVKENEFQLVLTANSGTDNTMKITVEGDTKLNDLLAYDSTTNTGNMQELVKAENAKLNVNGIDIERQSNTVTDAPQGITLTLTKKVTDATVTVTKDDTKAKEAIKSWVDAYNSLVDTFSSLTKYTAVEPGEEASDKNGALLGDSVVRTIQTGIRAQFANSGSNSAFKTMAEIGITQDGTSGKLKIDDDKLTKVLKDNTAAARELLVGDGKETGITTKIATEVKSYLADDGIIDNAQDNV
B2: FlgL, hook-filament junction protein (unlabeled, for NMR titration) (natural protein)
chain: MRISTQMMYEQNMSGITNSQAEWMKLGEQMSTGKRVTNPSDDPIAASQAVVLSQAQAQNSQYALARTFATQKVSLEESVLSQVTTAIQTAQEKIVYAGNGTLSDDDRASLATDLQGIRDQLMNLANSTDGNGRYIFAGYKTEAAPFDQATGGYHGGEKSVTQQVDSARTMVIGHTGAQIFNSITSNAVPEPDGSDSEKNLFVMLDTAIAALKTPVEGNNVEKEKAAAAIDKTNRGLKNSLNNVLTVRAELGTQLSELSTLDSLGSDRALGQKLQMSNLVDVDWNSVISSYVMQQAALQASYKTFTDMQGMSLFQLNR
B3: native FlgL of the hook-filament junction tip (natural protein)
chain: B2 chain
B4: FliC D1D2D3 (residues 45-455), as in the FliD-FliC fusion (domain or fragment)
chain: AAGQAIANRFTANIKGLTQASRNANDGISIAQTTEGALNEINNNLQRVRELAVQSANSTNSQSDLDSIQAEITQRLNEIDRVSGQTQFNGVKVLAQDNTLTIQVGANDGETIDIDLKQINSQTLGLDTLNVQQKYKVSDTAATVTGYADTTIALDNSTFKASATGLGGTDQKIDGDLKFDDTTGKYYAKVTVTGGTGKDGYYEVSVDKTNGEVTLAGGATSPLTGGLPATATEDVKNVQVANADLTEAKAALTAAGVTGTASVVKMSYTDNNGKTIDGGLAVKVGDDYYSATQNKDGSISINTTKYTADDGTSKTALNKLGGADGKTEVVSIGGKTYAASKAEGHNFKAQPDLAEAAATTTENPLQKIDAALAQVDTLRSDLGAVQNRFNSAITNLGNTVNNLTSARSRIE
B5: full-length FliD, as in the fusion constructs (natural protein)
chain: MASISSLGVGSNLPLDQLLTDLTKNEKGRLTPITKQQSANSAKLTAYGTLKSALEKFQTANTALNKADLFKSTVASSTTEDLKVSTTAGAAAGTYKINVTQLAAAQSLATKTTFATTKEQLGDTSVTSRTIKIEQPGRKEPLEIKLDKGDTSMEAIRDAINDADSGIAASIVKVKENEFQLVLTANSGTDNTMKITVEGDTKLNDLLAYDSTTNTGNMQELVKAENAKLNVNGIDIERQSNTVTDAPQGITLTLTKKVTDATVTVTKDDTKAKEAIKSWVDAYNSLVDTFSSLTKYTAVEPGEEASDKNGALLGDSVVRTIQTGIRAQFANSGSNSAFKTMAEIGITQDGTSGKLKIDDDKLTKVLKDNTAAARELLVGDGKETGITTKIATEVKSYLADDGIIDNAQDNVNATLKSLTKQYLSVSNSIDETVARYKAQFTQLDTMMSKLNNTSSYLTQQFTAMNKS
B6: FliD^2C (A91C/A168C) (natural protein)
chain: B5 chain with A91C, A168C
B7: native FliD of the flagellar tip (natural protein)
chain: B5 chain

Key:
[1] = target: FliD D1 domain (FliD^d1) (Salmonella enterica serovar Typhimurium) (UniProt P16328); assay: NMR titration
[2] = target: the molecule itself; assay: cryo-EM structure
[3] = target: FliD D1 domain (FliD^d1) (Salmonella enterica serovar Typhimurium) (UniProt P16328); assay: NMR titration; remark: listed apart in the source
[4] = target: the molecule itself; assay: cryo-EM structure; remark: listed apart in the source
[5] = target: B5; assay: cryo-EM structure
[6] = target: the molecule itself; assay: cryo-EM structure; remark: listed apart in the source
[7] = target: the molecule itself; assay: cryo-EM structure; remark: listed apart in the source
[8] = target: the molecule itself; assay: cross-linking

## FliC, flagellin (unlabeled, for NMR titration) (from UniProt P06179 1-495) (natural protein)
[1]
  Kd: 1.65 mM
  stoichiometry N: 1

## B1
[2]
  stoichiometry N: 5

## B2
[3]
  Kd: 100 µM

## B3
[4]
  stoichiometry N: 11

## B4
[5]
  stoichiometry N: 1

## B5
[6]
  stoichiometry N: 10
[7]
  stoichiometry N: 5

## B6
[8]
  stoichiometry N: 5

## B7
[4]
  stoichiometry N: 5
